For series [1], the system named is T1, Bxb1 integrase, codon-optimized with bipartite Xenopus NLS (Mycobacteriophage Bxb1?).
T1 sequence: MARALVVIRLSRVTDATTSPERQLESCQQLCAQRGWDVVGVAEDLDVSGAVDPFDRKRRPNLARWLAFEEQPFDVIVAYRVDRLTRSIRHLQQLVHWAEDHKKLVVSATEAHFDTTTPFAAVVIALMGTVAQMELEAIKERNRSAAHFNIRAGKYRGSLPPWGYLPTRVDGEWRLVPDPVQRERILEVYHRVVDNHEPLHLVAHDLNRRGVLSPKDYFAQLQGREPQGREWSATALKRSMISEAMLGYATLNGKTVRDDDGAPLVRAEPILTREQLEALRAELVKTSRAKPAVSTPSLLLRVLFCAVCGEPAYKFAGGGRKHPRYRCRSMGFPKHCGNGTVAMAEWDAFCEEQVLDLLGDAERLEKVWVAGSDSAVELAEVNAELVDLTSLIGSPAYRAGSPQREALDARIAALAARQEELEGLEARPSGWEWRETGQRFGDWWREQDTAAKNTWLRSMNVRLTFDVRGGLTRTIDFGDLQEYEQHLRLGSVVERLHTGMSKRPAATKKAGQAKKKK
In words: cell_activity. The conditions noted are these: 1 mM VPA as printed, 27.6% without VPA.

Series [2] concerns Bxb1 integrase (Mycobacteriophage Bxb1?). In words: cell_activity. The note with it: 0.85% without integrase.

As for Bxb1 attB (donor plasmid with GFP), the activity (% integration) in series [1] (attB donor partner, HEK293 H11) stood at 45.2. Further, the activity (% GFP-positive cells) in series [2] (attB donor partner of attP at H11 in HEK293) came to 19.4.

“Bxb1 attP (landing pad at H11 or AAVS1 locus)” displayed an activity (% integration) in series [1] (HEK293 H11 attP, 43.5% at 700 nM VPA) of 45.2. The substance further gave an activity (% GFP-positive cells) in series [2] (attP x attB integration at H11 in HEK293, AAVS1 locus 15.4% (0.74% without)) of 19.4.
